The target of assay [1] is binding of SNA to plasma VWF (Sambucus nigra, UniProt Q41358). The following applies: for Inhibition of binding of SNA to plasma VWF: plasma VWF:Ag 5 mU/mL.
Assay [2] concerns Maackia amurensis agglutinin (MAA). The assay is described as follows: MAA binding of plasma VWF and rVWF after neuraminidase treatment. The following applies: for Binding to MAL after addition of neuraminidase: neuraminidase 1-20 mU/mL. The text has this: In order to confirm that the recombinant protein did express sialic acid moieties, but in a different configuration than the plasma derived sialic acid, a binding assay that measures binding of protein to α2,3-linked neuraminic acid is used to detect the recombinantly expressed α2,3-linked neuraminic acid on the recombinant protein. The lectin, Maackia amurensis agglutinin (MAA), which binds α2,3-linked neuraminic acid, was used to determine if desialylation of rVWF occurred in the presence of neuraminidase.
Anti-vWF plates were prepared as above. Both the human plasma pool and the rVWF preparation were diluted to obtain VWF:Ag concentrations of 5 mU/mL and 2.5 mU/mL. 100 μL/well of the sample dilutions were loaded to the coated, periodate-oxidized plates and incubated for 60 minutes at RT and washed afterwards. The neuraminidase digest was then carried out on the plate. Neuraminidase (Sigma) was used at the concentrations of 0, 1, 5, 10 and 20 mU/mL. Afterwards, the plates were washed and incubated with the biotinylated MAA (Vector, 1 μg/mL) for 60 minutes at RT. The incubation was terminated by washing, after which the plates were incubated 30 minutes at RT with streptavidin peroxidase (DakoCytomation, 1/4000). After a final washing step, the bound peroxidase was measured as previously described.

Assay [3] concerns the target T1, Sambucus nigra agglutinin (SNA) (Sambucus nigra, UniProt Q41358). The following applies: for Change of SNA binding after neuraminidase treatment: neuraminidase 0-20 mU/mL, 2 hours 37° C.
Assay [4] concerns the target T1, Sambucus nigra agglutinin (SNA). The note with it: plasma pool 2.88-0.18 mU VWF:Ag/mL; rVWF 311-19 mU/mL.
The target is the same in assay [5]. The following applies: mean of six tests, human plasma pool = 100%.

Read-outs that look alike come from different tables or passages of the source.

Sequence of binding of SNA to plasma VWF (Q41358 309-570 limits assumed): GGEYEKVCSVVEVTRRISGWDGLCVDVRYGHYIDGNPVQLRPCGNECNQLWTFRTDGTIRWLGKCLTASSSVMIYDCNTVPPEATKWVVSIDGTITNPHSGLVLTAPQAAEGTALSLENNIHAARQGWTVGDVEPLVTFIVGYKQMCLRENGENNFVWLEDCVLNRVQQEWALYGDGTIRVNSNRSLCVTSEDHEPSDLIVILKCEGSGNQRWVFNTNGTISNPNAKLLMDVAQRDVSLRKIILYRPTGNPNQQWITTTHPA
Sequence of binding of SNA to plasma VWF (Q41358 29-289 partner limits assumed): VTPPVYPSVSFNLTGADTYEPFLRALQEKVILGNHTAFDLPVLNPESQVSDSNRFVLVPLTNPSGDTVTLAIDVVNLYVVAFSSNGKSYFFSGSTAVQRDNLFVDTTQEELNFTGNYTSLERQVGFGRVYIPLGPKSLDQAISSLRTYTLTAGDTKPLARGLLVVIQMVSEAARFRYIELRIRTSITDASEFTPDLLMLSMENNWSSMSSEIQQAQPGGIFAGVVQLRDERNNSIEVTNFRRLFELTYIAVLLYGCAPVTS

Consider `CC(=O)N[C@H]1[C@H]([C@H](O)[C@H](O)CO)O[C@@](OC[C@H]2O[C@@H](O[C@H]3[C@H](O)[C@@H](O)[C@H](O)O[C@@H]3CO)[C@H](O)[C@@H](O)[C@H]2O)(C(=O)O)C[C@@H]1O` [6′-sialyllactose], for which the “Inhibition of binding of SNA to plasma VWF” value is recorded as “approximately 25%” in assay [1] (10 μM) and roughly 75% in assay [1] (100 μM).
On to “CHO cell-derived rVWF: recombinantly produced von Willebrand factor from Chinese hamster ovary (CHO) cells”, for which the “Binding to MAL after addition of neuraminidase” value in assay [2] is listed as “abolished”. In addition, the MAA lectin binding entry in assay [2] (without neuraminidase) is “bound”. Also, the “Change of SNA binding after neuraminidase treatment” value in assay [3] (VWF:Ag 5 and 2.5 mU/mL) is given as “not altered”. The SNA binding entry in assay [3] (without neuraminidase, VWF:Ag 5 and 2.5 mU/mL) was “no binding”; in assay [4] it was “no binding”.
Regarding `CC(=O)N[C@H]1[C@H]([C@H](O)[C@H](O)CO)O[C@@](O[C@H]2[C@@H](O)[C@@H](CO)O[C@@H](O[C@H]3[C@H](O)[C@@H](O)C(O)O[C@@H]3CO)[C@@H]2O)(C(=O)O)C[C@@H]1O` (some centres unmarked) [3′-sialyllactose], the “Effect on binding of SNA to plasma VWF” value in assay [1] (assay as in Example 5) is reported as “no effect”.
Take “plasma VWF: plasma derived von Willebrand factor, measured in a human plasma pool”: in assay [2], the “Binding to MAL after addition of neuraminidase” value is on record as “abolished”. Also, the “Change of SNA binding after neuraminidase treatment” value in assay [3] (VWF:Ag 5 and 2.5 mU/mL) is given as “reduced proportional to the concentration of the neuraminidase applied”. Further, in assay [3] (neuraminidase 20 mU/mL), the “SNA binding relative to initially measured” value is “less than 95%”. Further, in assay [5] (Example 7, 0 U rVWF spiked), the “SNA binding Mean (SNA binding measured)” value worked out at 137.2%. Also, the “SNA binding Mean (SNA binding found)” value in assay [5] (Example 8, 0 rVWF spiked) is 123.5%. Moreover, the SNA binding result in assay [4] is “clear dose dependent relation”.

The values above are taken from US8828676B2, “Methods for differentiating plasma-derived protein from recombinant protein in a sample” (Baxter International Inc., priority 2007, dated 2014).
